Experimental data as given in article PMC2937010.

Target: RMI1 OB2 domain (C-terminal OB fold of RMI1, residues 473-625) (human) (UniProt Q9H9A7)
Experiment: SEC

RMI2 (RMI core complex, wild type) (natural protein)
stoichiometry N: 1
